Assay [1] concerns the target T1, rat FOLR1 extracellular domain linked to His tag (rat, UniProt G3V8M6 25-232).
T1 construct: BLI analyte; also called Rat-Ag
The assay is described as follows: BLI, Ag 125 nM; * below range of quantification.

Assay [2] addresses T2, mouse FOLR1 extracellular domain linked to His tag (mouse, UniProt P35846 25-232, limits assumed).
T2 construct: extracellular domain; BLI analyte; also called Mouse-Ag; not shown: His tag
The assay can be described thus: BLI, Ag 125 nM; * below range of quantification.

In assay [3] the target is T1, rat FOLR1 extracellular domain linked …. The assay is described as follows: BLI, Ag 15.6 nM; * below range of quantification.
For assay [4], the target named is T2, mouse FOLR1 extracellular domain linked …. The assay can be described thus: BLI, Ag 15.6 nM; * below range of quantification.
For assay [5], the target named is T1, rat FOLR1 extracellular domain linked …. The assay is described as follows: BLI, Ag 31.3 nM; * below range of quantification.
In assay [6] the target is T2, mouse FOLR1 extracellular domain linked …. The assay can be described thus: BLI, Ag 31.3 nM; * below range of quantification.
For assay [7], the target named is T1, rat FOLR1 extracellular domain linked …. The assay is described as follows: BLI, Ag 62.5 nM; * below range of quantification.
The target in assay [8] is T2, mouse FOLR1 extracellular domain linked …. The assay is described as follows: BLI, Ag 62.5 nM; * below range of quantification.
The target in assay [9] is T1, rat FOLR1 extracellular domain linked …. The assay is described as follows: BLI, Ag 7.82 nM; * below range of quantification.
Assay [10] addresses T2, mouse FOLR1 extracellular domain linked …. The assay can be described thus: BLI, Ag 7.82 nM; * below range of quantification.
In assay [11] the target is T3, human FOLR3 extracellular domain linked to His tag (human, UniProt P41439 23-245, limits assumed).
T3 construct: extracellular domain; BLI analyte; also called Hu-FRg; not shown: His tag
T3 sequence (P41439 23-245 limits assumed): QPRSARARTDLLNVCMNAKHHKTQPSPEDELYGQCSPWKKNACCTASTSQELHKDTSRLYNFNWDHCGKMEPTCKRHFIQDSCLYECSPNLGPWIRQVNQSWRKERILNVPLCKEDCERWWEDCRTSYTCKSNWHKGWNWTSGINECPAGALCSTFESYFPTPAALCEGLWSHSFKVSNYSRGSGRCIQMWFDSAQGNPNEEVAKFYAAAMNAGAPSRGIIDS
The assay can be described thus: BLI, global 1:1 fit; all responses below quantification range.

In assay [12] the target is T1, rat FOLR1 extracellular domain linked …. The assay is described as above.
In assay [13] the target is T4, human FOLR1 protein, His tag (ACRO-FO1-H52H1) (human, UniProt P15328 25-233).
T4 construct: Bought recombinant protein used for panning and for coating ELISA plates; not shown: His tag
T4 sequence (P15328 25-233 limits assumed): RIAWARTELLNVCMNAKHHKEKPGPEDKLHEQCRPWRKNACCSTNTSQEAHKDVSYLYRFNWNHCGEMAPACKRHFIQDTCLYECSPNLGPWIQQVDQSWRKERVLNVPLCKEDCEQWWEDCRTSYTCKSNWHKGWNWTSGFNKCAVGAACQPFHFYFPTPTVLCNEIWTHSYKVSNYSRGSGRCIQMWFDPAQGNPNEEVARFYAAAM
The assay is described as follows: ELISA, supernatant diluted 25x.

This is an account of results in patent US20240207418A1 (PROFOUNDBIO US, published 2024).

T1 sequence (G3V8M6 entry or part of it limits assumed): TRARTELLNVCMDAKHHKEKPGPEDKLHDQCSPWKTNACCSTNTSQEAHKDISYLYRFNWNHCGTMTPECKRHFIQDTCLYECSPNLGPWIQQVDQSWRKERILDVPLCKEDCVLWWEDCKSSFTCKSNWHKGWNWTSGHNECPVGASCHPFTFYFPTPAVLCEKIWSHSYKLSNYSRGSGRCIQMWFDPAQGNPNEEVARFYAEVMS
T2 sequence (P35846 25-232 limits assumed): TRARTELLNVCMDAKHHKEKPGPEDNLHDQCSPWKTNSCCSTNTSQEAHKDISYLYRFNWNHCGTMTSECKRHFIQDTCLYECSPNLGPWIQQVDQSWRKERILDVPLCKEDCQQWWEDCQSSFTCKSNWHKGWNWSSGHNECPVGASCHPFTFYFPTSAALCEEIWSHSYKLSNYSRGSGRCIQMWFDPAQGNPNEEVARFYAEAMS

B1: anti-huFOLR-1 conjugate F131-LD038 (antibody, V domains shown)
VH: EVQLLESGGGVVQPGRSLRLSCAASGFTFSSYGMHWVRQAPGKGLEWVAVISYDGSNKYYADSVKGRFTISRANSKNTLYLQMNSLRAEDTAVYYCARPRAYYGAYGSSFDYWGQGTQVTVSS
VL: EIVMTQSPSSVSASVGDRVAITCRASQGISSWLAWYQQKPGKAPKLLIYAASSLQSGVPSRFSGSGSGTDFTLTISSLQPEDFATYYCQQSYSTPLTFGGGTKVDIK
modifications: drug-linker LD038 coupled to cysteine thiols after TCEP reduction; positions not given; drug-linker LD038 (PB038; PEG unit, Val-Cit-PAB cleavable linker, exatecan) coupled by maleimide to cysteine thiols after TCEP reduction; DAR 7.6 by LC-MS; positions not given
notes: also called F131-038; PA038 conjugate of F131
With B1, the Response is 0.0007 in assay [1]; 0.0008 in assay [2]; -0.00212 in assay [3]; -0.00324 in assay [4]; -0.00454 in assay [5]; -0.00132 in assay [6]. For the same molecule, the Response was -0.00393 in assay [7], -0.000242 in assay [8], -0.00438 in assay [9] and -0.00483 in [10]. Moreover, the Kd in [11] amounted to 0.0328 nM; in [12], 84.8 nM. The molecule further came in with a koff in assay [12] of 0.224 s⁻¹. In addition, the kon in assay [12] stood at 2.64e+06 M⁻¹ s⁻¹.

B2: anti-FOLR1 antibody F131 (antibody, V domains shown)
VH: EVQLLESGGGVVQPGRSLRLSCAASGFTFSSYGMHWVRQAPGKGLEWVAVISYDGSNKYYADSVKGRFTISRANSKNTLYLQMNSLRAEDTAVYYCARPRAYYGAYGSSFDYWGQGTQVTVSS
VL: EIVMTQSPSSVSASVGDRVAITCRASQGISSWLAWYQQKPGKAPKLLIYAASSLQSGVPSRFSGSGSGTDFTLTISSLQPEDFATYYCQQSYSTPLTFGGGTKVDIK
notes: Tested as full-length IgG with an IgG1 Fc (HEK293 supernatant and purified; later ExpiCHO-S); also called F131 mAb; F131 Ab
As for B2, the Response was -0.00477 in assay [1]; -0.000579 in assay [2]; -0.00395 in [3]; -0.0051 in assay [4]; -0.00532 in [5]; -0.00251 in [6]. Besides, the Response in [7] is -0.00606; in assay [8], -0.00178; in assay [9], -0.00563; in assay [10], 0.0027. The off-rate (koff) in [12] worked out at 1.03 s⁻¹. In addition, the kon in [12] came out at 5490 M⁻¹ s⁻¹.

B3: anti-FOLR1 antibody F138 (antibody, V domains shown)
VH: EVQLLESGGGVVQPGRSLRLSCAASGFTFSSYGMHWVRQAPGKGLEWVAVISYDGSNKYYADSVKGRFTISTHNSKNTLYLQMNSLRAEDTAVYYCARPRAYYGAYGSSFDYWGQGTQVTVSS
VL: EIVMTQSPSSVSASVGDRVAITCRASQGISSWLAWYQQKPGKAPKLLIYAASSLQSGVPSRFSGSGSGTDFTLTISSLQPEDFATYYCQQSYSTPLTFGGGTKVDIK
notes: Tested as full-length IgG with an IgG1 Fc, expressed in HEK293 (transfection supernatant); also called clone F138
Molecule B3 yielded an OD450 in assay [13] of 0.827 OD450.
